Here are results for 42 molecules from patent publication US20020045192A1 (ST JUDE CHILDREN S RESEARCH HOSPITAL, published 2002).

In one test the target is T1, His-tagged Hdm2 210-304 (human, UniProt Q00987 210-304).
T1 construct: Captured on the C-1 chip by anti-His antibody for the Arf peptide library SPR; Tag placed first here
The test can be described thus: SPR, His-tagged Hdm2 210-304 captured by anti-His antibody, peptide injected 10 min, signal minus reference cell [b]. As to the method: (§1) Reactive sites remaining on the surface were blocked by reaction with ethanolamine. The His-tagged ligand was attached to the antibody by injecting a 5-10 μg/ml solution of the ligand in 10 mM HEPES, 150 mM NaCl, pH 7.4 (HBS-N buffer, Biacore) at a flow rate of 10 μL/min through the flow cell. A reference cell was prepared similarly except that no His-tagged ligand was added. Binding was measured by flowing the non-His-tagged analyte through the reference and ligand-containing flow cells in sequence. Prior to injection of ligands, the chip surfaces were equilibrated in HBS-N buffer. Changes in the SPR response due to solvent differences and the injection process were monitored by injection of HBS-N buffer alone. Regeneration of the chip surface to remove bound analyte and ligand was accomplished by two 100 μL injections of 10 mM glycine, pH 2.0 through both flow cells. Data reported is the difference in SPR signal between the flow cell containing analyte and the reference cell. Duplicate injections were made and the SPR response values reported are the average of these two injections.
Two libraries of peptides 15 amino acids in length were synthesized based on the sequence of exon 1β of mouse p19^Arf and the entire sequence of human p14^Arf. The sequence for the first peptide in each library corresponded to the first 15 amino acids of the protein sequences. […] This approach yielded two libraries of overlapping peptides spanning mouse p19^Arf residues 1-64 and human p14^Arf residues 1-132. The ability of these peptides to bind Hdm2 fragments was determined using the surface plasmon resonance (SPR) technique with a Biacore 3000 instrument. […] Library peptides were allowed to flow over the Hdm2 surface, or over a control surface lacking an Hdm2 fragment.
For orientation: SPR reads the build-up and loss of mass on a sensor chip optically.

Test [1] deals with T2, His-tagged mArfN37 (N-terminal 37 amino acids of mouse p19Arf with poly-His tag) (mouse).
T2 construct: Captured on the SPR chip by a covalently linked anti-His antibody; Tag placed first here; also called His-mArfN37; His-tagged mArf37
T2 chain: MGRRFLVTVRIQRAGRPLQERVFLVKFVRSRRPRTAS
Briefly: SPR, His-tagged mArfN37 captured by anti-His antibody, peptide injected, signal minus reference cell [c]. The method, then:
as §1, with “Binding studies were performed using a Biacore 3000 surface plasmon resonance (SPR) instrument (Biacore, Inc.). A Tetra-His™ Antibody (Qiagen, Inc.; Cat. #34670) was covalently attached to a carboxymethylated gold surface (C-1 chip; Biacore, Inc.). The carboxymethyl groups on the surface were activated with N-ethyl-N′-(3-dimethylaminopropyl) carbodiimide (EDC) and N-hydroxysuccinimide (NHS) and the antibody was attached at pH 7.4 in 20 mM sodium phosphate buffer, 150 mM NaCl (PBS). Reactive” for “Reactive”
A similar approach using short synthetic peptides and SPR was used to map the segments of Hdm2 that bind mArfN37 (FIG. 5c). […] The first of these as Arf-binding segment is termed “H1” and the second is termed segment “H2”.

T1 sequence (Q00987 210-304): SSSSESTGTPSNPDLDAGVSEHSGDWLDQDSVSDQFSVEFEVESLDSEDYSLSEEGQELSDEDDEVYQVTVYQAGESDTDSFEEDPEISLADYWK

B1: 81-95 (human Arf peptide) (peptide)
peptide: Ac-RRGAQLRRPRHSHPT-NH2
notes: also called human p14Arf library peptide, residues 81-95
Regarding B1, in the test with His-tagged Hdm2 210-304, the binding result is given as “no binding”.

B2: 41-55 (human Arf peptide) (peptide)
peptide: Ac-AAVALVLMLLRSQRL-NH2
notes: also called human p14Arf library peptide, residues 41-55
B2: the binding result with His-tagged Hdm2 210-304 is given as “no binding”.

B3: 71-85 (human Arf peptide) (peptide)
peptide: Ac-RPSGGAAAAPRRGAQ-NH2
notes: also called human p14Arf library peptide, residues 71-85
For the molecule B3, the binding result in the test with His-tagged Hdm2 210-304 is “no binding”.

B4: human p14Arf library peptide, residues 6-20 (peptide)
peptide: Ac-LVTLRIRRACGPPRV-NH2
notes: also called second peptide of the human library
Turning to B4, the binding result with His-tagged Hdm2 210-304 is given as “binds”.

B5: 61-75 (human Arf peptide) (peptide)
peptide: Ac-PRRPGHDDGQRPSGG-NH2
notes: also called human p14Arf library peptide, residues 61-75
Take B5: the binding result in the test with His-tagged Hdm2 210-304 is recorded as “no binding”.

B6: 295-309 (Hdm2 peptide) (peptide)
peptide: Ac-PEISLADYWKCTSCN-NH2
modifications: cysteine pairing not given here
notes: also called Hdm2 library peptide, residues 295-309
On to B6, for which, in test [1], the binding result is reported as “no binding”.

B7: 215-229 (Hdm2 peptide) (peptide)
peptide: Ac-STGTPSNPDLDAGVS-NH2
notes: also called Hdm2 library peptide, residues 215-229
B7: the binding result in test [1] is reported as “no binding”.

B8: human p14Arf library peptide, residues 1-15 (peptide)
peptide: Ac-MVRRFLVTLRIRRAC-NH2
notes: also called first peptide of the human library
Regarding B8, the binding result with His-tagged Hdm2 210-304 was “binds”.

B9: 21-35 (human Arf peptide) (peptide)
peptide: Ac-RVFVVHIPRLTGEWA-NH2
notes: also called human p14Arf library peptide, residues 21-35
B9: the binding result with His-tagged Hdm2 210-304 is “no binding”.

B10: 51-65 (human Arf peptide) (peptide)
peptide: Ac-RSQRLGQQPLPRRPG-NH2
notes: also called human p14Arf library peptide, residues 51-65
As for B10, in the test with His-tagged Hdm2 210-304, the binding result is “no binding”.

B11: 111-125 (human Arf peptide) (peptide)
peptide: Ac-AAPGRGAAGRARCLG-NH2
notes: also called human p14Arf library peptide, residues 111-125
As to B11, the binding result with His-tagged Hdm2 210-304 was “no binding”.

B12: 106-120 (human Arf peptide) (peptide)
peptide: Ac-GHAGGAAPGRGAAGR-NH2
notes: also called human p14Arf library peptide, residues 106-120
For the molecule B12, in the test with His-tagged Hdm2 210-304, the binding result was “no binding”.

B13: 240-254 (Hdm2 peptide) (peptide)
peptide: Ac-SVSDQFSVEFEVESL-NH2
notes: member of the group m17; also called Hdm2 library peptide, residues 240-254; H1 segment peptide
Take B13: in test [1], the binding result is “binds”.

B14: 76-90 (human Arf peptide) (peptide)
peptide: Ac-AAAAPRRGAQLRRPR-NH2
notes: also called human p14Arf library peptide, residues 76-90
Turning to B14, the binding result with His-tagged Hdm2 210-304 was “no binding”.

B15: 116-130 (human Arf peptide) (peptide)
peptide: Ac-GAAGRARCLGPSARG-NH2
notes: also called human p14Arf library peptide, residues 116-130
As to B15, in the test with His-tagged Hdm2 210-304, the binding result is reported as “no binding”.

B16: 235-249 (Hdm2 peptide) (peptide)
peptide: Ac-WLDQDSVSDQFSVEF-NH2
notes: member of the group m17; also called H1 segment peptide
For B16, the binding result in test [1] is “binds”.

B17: 56-70 (human Arf peptide) (peptide)
peptide: Ac-GQQPLPRRPGHDDGQ-NH2
notes: also called human p14Arf library peptide, residues 56-70
For the molecule B17, in the test with His-tagged Hdm2 210-304, the binding result is reported as “no binding”.

B18: 210-224 (Hdm2 peptide) (peptide)
peptide: Ac-SSSSESTGTPSNPDL-NH2
notes: also called Hdm2 library peptide, residues 210-224
For the molecule B18, the binding result in test [1] is reported as “no binding”.

B19: 220-234 (Hdm2 peptide) (peptide)
peptide: Ac-SNPDLDAGVSEHSGD-NH2
notes: also called Hdm2 library peptide, residues 220-234
For B19, the binding result in test [1] was “no binding”.

B20: 265-279 (Hdm2 peptide) (peptide)
peptide: Ac-GQELSDEDDEVYQVT-NH2
notes: also called Hdm2 library peptide, residues 265-279
As to B20, in test [1], the binding result was “no binding”.

For Ac-DSEDYSLSEEGQELS-NH2 [255-269 (Hdm2 peptide)], the binding result in test [1] is on record as “no binding”.

With Ac-LRRPRHSHPTRARRC-NH2 [human p14Arf library peptide, residues 86-100 (contains the NoLS RRPR)], the binding result in the test with His-tagged Hdm2 210-304 is reported as “binds”.

B21: 91-105 (human Arf peptide) (peptide)
peptide: Ac-HSHPTRARRCPGGLP-NH2
notes: also called human p14Arf library peptide, residues 91-105
As to B21, the binding result in the test with His-tagged Hdm2 210-304 is “no binding”.

B22: 260-274 (Hdm2 peptide) (peptide)
peptide: Ac-SLSEEGQELSDEDDE-NH2
notes: also called Hdm2 library peptide, residues 260-274
For B22, the binding result in test [1] was “no binding”.

B23: 31-45 (human Arf peptide) (peptide)
peptide: Ac-TGEWAAPGAPAAVAL-NH2
notes: also called human p14Arf library peptide, residues 31-45
For the molecule B23, in the test with His-tagged Hdm2 210-304, the binding result is given as “no binding”.

B24: 96-110 (human Arf peptide) (peptide)
peptide: Ac-RARRCPGGLPGHAGG-NH2
notes: also called human p14Arf library peptide, residues 96-110
As to B24, the binding result in the test with His-tagged Hdm2 210-304 is on record as “no binding”.

B25: 320-334 (Hdm2 peptide) (peptide)
peptide: Ac-NRCWALRENWLPEDK-NH2
notes: also called Hdm2 library peptide, residues 320-334
For the molecule B25, in test [1], the binding result is recorded as “no binding”.

B26: 245-259 (Hdm2 peptide) (peptide)
peptide: Ac-FSVEFEVESLDSEDY-NH2
notes: as for B16
On to B26, for which the binding result in test [1] was “binds”.

B27: 101-115 (human Arf peptide) (peptide)
peptide: Ac-PGGLPGHAGGAAPGR-NH2
notes: also called human p14Arf library peptide, residues 101-115
Turning to B27, the binding result with His-tagged Hdm2 210-304 is reported as “no binding”.

B28: 230-244 (Hdm2 peptide) (peptide)
peptide: Ac-EHSGDWLDQDSVSDQ-NH2
notes: also called Hdm2 library peptide, residues 230-244
For B28, in test [1], the binding result is recorded as “no binding”.

B29: 46-60 (human Arf peptide) (peptide)
peptide: Ac-VLMLLRSQRLGQQPL-NH2
notes: also called human p14Arf library peptide, residues 46-60
Take B29: the binding result with His-tagged Hdm2 210-304 was “no binding”.

B30: 26-40 (human Arf peptide) (peptide)
peptide: Ac-HIPRLTGEWAAPGAP-NH2
notes: also called human p14Arf library peptide, residues 26-40
B30: the binding result in the test with His-tagged Hdm2 210-304 is listed as “no binding”.

B31: 285-299 (Hdm2 peptide) (peptide)
peptide: Ac-ESDTDSFEEDPEISL-NH2
notes: also called Hdm2 library peptide, residues 285-299
Take B31: the binding result in test [1] is “no binding”.

B32: 66-80 (human Arf peptide) (peptide)
peptide: Ac-HDDGQRPSGGAAAAP-NH2
notes: also called human p14Arf library peptide, residues 66-80
For the molecule B32, the binding result in the test with His-tagged Hdm2 210-304 is “no binding”.

Ac-EVESLDSEDYSLSEE-NH2 [250-264 (Hdm2 peptide)]: in test [1], the binding result is on record as “binds”.

B33: 310-324 (Hdm2 peptide) (peptide)
peptide: Ac-EMNPPLPSHCNRCWA-NH2
modifications: cysteine pairing not given here
notes: also called Hdm2 library peptide, residues 310-324
As for B33, in test [1], the binding result is “no binding”.

Consider Ac-LPSHCNRCWALRENW-NH2 (cysteine pairing not given here) [315-329 (Hdm2 peptide)], for which the binding result in test [1] is reported as “no binding”.

B34: human p14Arf library peptide, residues 11-25 (peptide)
peptide: Ac-IRRACGPPRVRVFVV-NH2
notes: also called third peptide of the human library
As to B34, the binding result in the test with His-tagged Hdm2 210-304 was “binds”.

B35: 280-294 (Hdm2 peptide) (peptide)
peptide: Ac-VYQAGESDTDSFEED-NH2
notes: also called Hdm2 library peptide, residues 280-294
B35: the binding result in test [1] is listed as “no binding”.

On to Ac-SFEEDPEISLADYWK-NH2 [Hdm2 peptide, residues 290-304 of SEQ ID NO:8], for which the binding result in test [1] is “binds”.

B36: 270-284 (Hdm2 peptide) (peptide)
peptide: Ac-DEDDEVYQVTVYQAG-NH2
notes: also called Hdm2 library peptide, residues 270-284
Regarding B36, in test [1], the binding result was “binds”.

B37: 300-314 (Hdm2 peptide) (peptide)
peptide: Ac-ADYWKCTSCNEMNPP-NH2
modifications: cysteine pairing not given here
notes: also called Hdm2 library peptide, residues 300-314
Regarding B37, the binding result in test [1] was “no binding”.
